Source: PMC5912162 (Bioconjugate chemistry, 2010)

How the values were obtained:
[1] = system: KRAS2 G12D 20-mer RNA; settings: cited from earlier work
[2] = in vivo; settings: mouse, iv, 2 nmol, total radioactivity, Tissue distribution
[3] = mouse, in vivo
[4] = system: human CAPAN2 (G12 V) pancreatic cancer xenografts; settings: mouse, in vivo
[5] = in vivo; settings: mouse, iv, total radioactivity

| Compound | Tm [1] [°C] | tissue uptake at 24 h ([2]; blood) [%ID/g] | tissue uptake at 24 h ([2]; heart) [%ID/g] | tissue uptake at 24 h ([2]; intestine) [%ID/g] | tissue uptake at 24 h ([2]; kidneys) [%ID/g] | tissue uptake at 24 h ([2]; liver) [%ID/g] | tissue uptake at 24 h ([2]; lungs) [%ID/g] | tissue uptake at 24 h ([2]; muscle) [%ID/g] | tissue uptake at 24 h ([2]; spleen) [%ID/g] | tissue uptake at 24 h ([2]; tumor) [%ID/g] | Breakdown fragments in urine [3] | Free 111In (void volume peak) in urine, share of radioactivity [3] | Intact probe peak (eluting at 9 min) in urine, share of radioactivity [3] | Decrease of K/T ratio by added Gdn probes [4] | Decrease of kidney accumulation by added Gdn probes [4] [fold] | tissue to tissue ratio at 24 h [5] |
| --- | --- | --- | --- | --- | --- | --- | --- | --- | --- | --- | --- | --- | --- | --- | --- | --- |
| Cc1cn(CC(=O)N(CCNC(=O)CN(CCNC(=O)CN(CCNC(=O)CN(CCNC(=O)CN(CCNC(=O)CN(CCNC(=O)CN(CCNC(=O)CN(CCNC(=O)CN(CCNC(=O)CN(CCNC(=O)COCCOCCNC(=O)COCCOCCNC(=O)[C@H](CNC(=O)COCCOCCNC(=O)CN2CCN(CC(=O)O)CCN(CC(=O)O)CCN(CC(=O)O)CC2)NC(=O)COCCOCCNC(=O)CN2CCN(CC(=O)O)CCN(CC(=O)O)CCN(CC(=O)O)CC2)C(=O)Cn2cnc3c(=O)[nH]c(N)nc32)C(=O)Cn2ccc(N)nc2=O)C(=O)Cn2ccc(N)nc2=O)C(=O)Cn2cnc3c(N)ncnc32)C(=O)Cn2cc(C)c(=O)[nH]c2=O)C(=O)Cn2ccc(N)nc2=O)C(=O)Cn2cnc3c(N)ncnc32)C(=O)Cn2cnc3c(=O)[nH]c(N)nc32)C(=O)Cn2ccc(N)nc2=O)CC(=O)NCCN(CC(=O)NCCN(CC(=O)NCCOCCOCC(=O)N[C@@H]2CSSC[C@H](C(N)=O)NC(=O)[C@@H](CCCCN)NC(=O)[C@@H](CO)NC2=O)C(=O)Cn2ccc(N)nc2=O)C(=O)Cn2ccc(N)nc2=O)c(=O)[nH]c1=O [WT5195, (DOTA-AEEA)2-PDAP^1-AEEA2-GCCAtCAGCTCC-AEEA-D(Cys-Ser-Lys-Cys)] | 78.7 ± 0.6 | 0.02 ± 0.01 | 0.028 ± 0.008 | 0.048 ± 0.007 | 18.4 ± 1.89 | 0.147 ± 0.015 | 0.217 ± 0.257 | 0.038 ± 0.007 | 0.079 ± 0.006 | 0.135 ± 0.034 | not detected | less than 1% | more than 99% |  |  |  |
| Cc1cn(CC(=O)N(CCNC(=O)CN(CCNC(=O)CN(CCNC(=O)CN(CCNC(=O)CN(CCNC(=O)CN(CCNC(=O)CN(CCNC(=O)CN(CCNC(=O)CN(CCNC(=O)CN(CCNC(=O)COCCOCCNC(=O)COCCOCCNC(=O)[C@H](CNC(=O)[C@H](CNC(=O)[C@H](CNC(=O)COCCOCCNC(=O)CN2CCN(CC(=O)O)CCN(CC(=O)O)CCN(CC(=O)O)CC2)NC(=O)COCCOCCNC(=O)CN2CCN(CC(=O)O)CCN(CC(=O)O)CCN(CC(=O)O)CC2)NC(=O)[C@H](CNC(=O)COCCOCCNC(=O)CN2CCN(CC(=O)O)CCN(CC(=O)O)CCN(CC(=O)O)CC2)NC(=O)COCCOCCNC(=O)CN2CCN(CC(=O)O)CCN(CC(=O)O)CCN(CC(=O)O)CC2)NC(=O)[C@H](CNC(=O)[C@H](CNC(=O)COCCOCCNC(=O)CN2CCN(CC(=O)O)CCN(CC(=O)O)CCN(CC(=O)O)CC2)NC(=O)COCCOCCNC(=O)CN2CCN(CC(=O)O)CCN(CC(=O)O)CCN(CC(=O)O)CC2)NC(=O)[C@H](CNC(=O)COCCOCCNC(=O)CN2CCN(CC(=O)O)CCN(CC(=O)O)CCN(CC(=O)O)CC2)NC(=O)COCCOCCNC(=O)CN2CCN(CC(=O)O)CCN(CC(=O)O)CCN(CC(=O)O)CC2)C(=O)Cn2cnc3c(=O)[nH]c(N)nc32)C(=O)Cn2ccc(N)nc2=O)C(=O)Cn2ccc(N)nc2=O)C(=O)Cn2cnc3c(N)ncnc32)C(=O)Cn2cnc3c(N)ncnc32)C(=O)Cn2ccc(N)nc2=O)C(=O)Cn2cnc3c(N)ncnc32)C(=O)Cn2cnc3c(=O)[nH]c(N)nc32)C(=O)Cn2ccc(N)nc2=O)CC(=O)NCCN(CC(=O)NCCN(CC(=O)NCCOCCOCC(=O)N[C@@H]2CSSC[C@H](C(N)=O)NC(=O)[C@@H](CCCCN)NC(=O)[C@@H](CO)NC2=O)C(=O)Cn2ccc(N)nc2=O)C(=O)Cn2ccc(N)nc2=O)c(=O)[nH]c1=O [WT8910, (DOTA-AEEA)8-PDAP^3-AEEA2-GCCAaCAGCTCC-AEEA-D(Cys-Ser-Lys-Cys)] | 66.9 ± 0.5 | 0.012 ± 0.002 | 0.037 ± 0.006 | 0.043 ± 0.006 | 13.9 ± 2.11 | 0.104 ± 0.015 | 0.207 ± 0.031 | 0.03 ± 0.004 | 0.056 ± 0.009 | 0.113 ± 0.014 |  |  |  | more than 5 fold | 2 | 6.5 ± 1 |
| Cc1cn(CC(=O)N(CCNC(=O)CN(CCNC(=O)CN(CCNC(=O)CN(CCNC(=O)CN(CCNC(=O)CN(CCNC(=O)CN(CCNC(=O)CN(CCNC(=O)CN(CCNC(=O)CN(CCNC(=O)COCCOCCNC(=O)COCCOCCNC(=O)[C@H](CNC(=O)[C@H](CNC(=O)[C@H](CNC(=O)COCCOCCNC(=O)CN2CCN(CC(=O)O)CCN(CC(=O)O)CCN(CC(=O)O)CC2)NC(=O)COCCOCCNC(=O)CN2CCN(CC(=O)O)CCN(CC(=O)O)CCN(CC(=O)O)CC2)NC(=O)[C@H](CNC(=O)COCCOCCNC(=O)CN2CCN(CC(=O)O)CCN(CC(=O)O)CCN(CC(=O)O)CC2)NC(=O)COCCOCCNC(=O)CN2CCN(CC(=O)O)CCN(CC(=O)O)CCN(CC(=O)O)CC2)NC(=O)[C@H](CNC(=O)[C@H](CNC(=O)COCCOCCNC(=O)CN2CCN(CC(=O)O)CCN(CC(=O)O)CCN(CC(=O)O)CC2)NC(=O)COCCOCCNC(=O)CN2CCN(CC(=O)O)CCN(CC(=O)O)CCN(CC(=O)O)CC2)NC(=O)[C@H](CNC(=O)COCCOCCNC(=O)CN2CCN(CC(=O)O)CCN(CC(=O)O)CCN(CC(=O)O)CC2)NC(=O)COCCOCCNC(=O)CN2CCN(CC(=O)O)CCN(CC(=O)O)CCN(CC(=O)O)CC2)C(=O)Cn2cnc3c(=O)[nH]c(N)nc32)C(=O)Cn2ccc(N)nc2=O)C(=O)Cn2ccc(N)nc2=O)C(=O)Cn2cnc3c(N)ncnc32)C(=O)Cn2cc(C)c(=O)[nH]c2=O)C(=O)Cn2ccc(N)nc2=O)C(=O)Cn2cnc3c(N)ncnc32)C(=O)Cn2cnc3c(=O)[nH]c(N)nc32)C(=O)Cn2ccc(N)nc2=O)CC(=O)NCCN(CC(=O)NCCN(CC(=O)NCCOCCOCC(=O)N[C@@H]2CSSC[C@H](C(N)=O)NC(=O)[C@@H](CCCCN)NC(=O)[C@@H](CO)NC2=O)C(=O)Cn2ccc(N)nc2=O)C(=O)Cn2ccc(N)nc2=O)c(=O)[nH]c1=O [WT8900, (DOTA-AEEA)8-PDAP^3-AEEA2-GCCAtCAGCTCC-AEEA-D(Cys-Ser-Lys-Cys)] | 75.9 ± 0.5 | 0.018 ± 0.001 | 0.035 ± 0.005 | 0.048 ± 0.004 | 29.6 ± 9.21 | 0.152 ± 0.012 | 0.096 ± 0.021 | 0.04 ± 0.01 | 0.075 ± 0.005 | 0.143 ± 0.011 |  |  |  |  |  |  |
| Cc1cn(CC(=O)N(CCNC(=O)CN(CCNC(=O)CN(CCNC(=O)CN(CCNC(=O)CN(CCNC(=O)CN(CCNC(=O)CN(CCNC(=O)CN(CCNC(=O)CN(CCNC(=O)CN(CCNC(=O)COCCOCCNC(=O)COCCOCCNC(=O)[C@H](CNC(=O)COCCOCCNC(=O)CN2CCN(CC(=O)O)CCN(CC(=O)O)CCN(CC(=O)O)CC2)NC(=O)COCCOCCNC(=O)CN2CCN(CC(=O)O)CCN(CC(=O)O)CCN(CC(=O)O)CC2)C(=O)Cn2cnc3c(=O)[nH]c(N)nc32)C(=O)Cn2ccc(N)nc2=O)C(=O)Cn2ccc(N)nc2=O)C(=O)Cn2cnc3c(N)ncnc32)C(=O)Cn2cnc3c(N)ncnc32)C(=O)Cn2ccc(N)nc2=O)C(=O)Cn2cnc3c(N)ncnc32)C(=O)Cn2cnc3c(=O)[nH]c(N)nc32)C(=O)Cn2ccc(N)nc2=O)CC(=O)NCCN(CC(=O)NCCN(CC(=O)NCCOCCOCC(=O)N[C@@H]2CSSC[C@H](C(N)=O)NC(=O)[C@@H](CCCCN)NC(=O)[C@@H](CO)NC2=O)C(=O)Cn2ccc(N)nc2=O)C(=O)Cn2ccc(N)nc2=O)c(=O)[nH]c1=O [WT5204, (DOTA-AEEA)2-PDAP^1-AEEA2-GCCAaCAGCTCC-AEEA-D(Cys-Ser-Lys-Cys)] | 68.0 ± 1.2 | 0.049 ± 0.005 | 0.042 ± 0.004 | 0.079 ± 0.008 | 19 ± 2.34 | 0.248 ± 0.033 | 0.093 ± 0.009 | 0.046 ± 0.006 | 0.105 ± 0.012 | 0.144 ± 0.014 |  |  |  |  |  |  |
| (Gd-DOTA-AEEA)8-PDAP^3-AEEA2-GCCAaCAGCTCC-AEEA-D(Cys-Ser-Lys-Cys) (disulfide) [WT10144] | 66.8 ± 0.9 |  |  |  |  |  |  |  |  |  |  |  |  |  |  |  |
| (Gd-DOTA-AEEA)2-PDAP^1-AEEA2-GCCAaCAGCTCC-AEEA-D(Cys-Ser-Lys-Cys) (disulfide) [WT5512] | 68.0 ± 1.0 |  |  |  |  |  |  |  |  |  |  |  |  |  |  |  |
